# Experimental data from US20200138970A1 (Bayer, published 2020).
# Residue numbers refer to the chain shown, from its start.
# T1: human B7H3 on cancer cell lines (human, UniProt Q5ZPR3 29-534)
# T1 construct: whole, on cells; Endogenous antigen on tumour cells; also called B7H3-positive cells (A498, MCF-7, Caki-2, U251, U87 MG, 786-O, NCI-H292)
# T1 sequence (looked up): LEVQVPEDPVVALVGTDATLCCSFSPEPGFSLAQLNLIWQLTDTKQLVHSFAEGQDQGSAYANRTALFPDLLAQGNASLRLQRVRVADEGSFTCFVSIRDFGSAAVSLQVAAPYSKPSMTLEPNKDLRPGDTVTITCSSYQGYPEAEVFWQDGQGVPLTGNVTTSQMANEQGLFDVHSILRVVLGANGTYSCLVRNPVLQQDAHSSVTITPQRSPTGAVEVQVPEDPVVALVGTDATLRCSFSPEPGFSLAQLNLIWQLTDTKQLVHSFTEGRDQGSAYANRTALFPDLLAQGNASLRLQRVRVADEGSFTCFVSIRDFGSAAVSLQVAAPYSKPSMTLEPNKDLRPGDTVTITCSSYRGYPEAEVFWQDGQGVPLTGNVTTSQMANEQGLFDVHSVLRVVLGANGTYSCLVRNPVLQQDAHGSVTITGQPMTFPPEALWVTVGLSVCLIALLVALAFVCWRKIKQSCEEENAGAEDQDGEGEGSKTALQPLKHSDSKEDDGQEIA
# T2: TPP-3760, B7H3 long, human (R&D Systems 2318-B3/CF) (human, UniProt Q5ZPR3 27-461)
# T2 construct: Bought protein; also called B7H3 (RnDSystems, 2318-B3-050/CF); human B7H3
# T2 sequence: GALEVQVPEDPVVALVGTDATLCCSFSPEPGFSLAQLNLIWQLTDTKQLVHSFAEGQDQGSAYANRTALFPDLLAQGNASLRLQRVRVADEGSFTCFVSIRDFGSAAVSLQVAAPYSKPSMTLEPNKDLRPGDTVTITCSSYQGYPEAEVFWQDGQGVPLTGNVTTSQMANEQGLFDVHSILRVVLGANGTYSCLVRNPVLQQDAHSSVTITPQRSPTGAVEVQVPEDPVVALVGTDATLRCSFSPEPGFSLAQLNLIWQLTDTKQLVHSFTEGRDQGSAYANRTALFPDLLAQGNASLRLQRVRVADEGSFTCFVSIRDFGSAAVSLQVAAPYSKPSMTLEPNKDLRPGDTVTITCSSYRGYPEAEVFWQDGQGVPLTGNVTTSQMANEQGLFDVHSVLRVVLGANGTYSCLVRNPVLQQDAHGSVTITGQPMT
# T3: human B7H2 (RnDSystems, 8206-B7) (human, UniProt O75144 19-258, limits assumed)
# T3 construct: Bought protein; His tag implied by anti-His detection
# T3 sequence (looked up): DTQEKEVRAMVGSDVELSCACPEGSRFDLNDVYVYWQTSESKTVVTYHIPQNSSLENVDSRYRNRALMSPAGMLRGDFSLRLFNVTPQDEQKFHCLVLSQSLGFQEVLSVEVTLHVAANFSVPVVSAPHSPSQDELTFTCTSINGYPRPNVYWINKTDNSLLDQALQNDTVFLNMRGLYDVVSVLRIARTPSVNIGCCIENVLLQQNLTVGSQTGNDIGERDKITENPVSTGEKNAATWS
# T4: human B7H4 (RnDSystems, 6576-B7) (human, UniProt Q7Z7D3 29-258, limits assumed)
# T4 construct: Bought protein; His tag implied by anti-His detection
# T4 sequence (looked up): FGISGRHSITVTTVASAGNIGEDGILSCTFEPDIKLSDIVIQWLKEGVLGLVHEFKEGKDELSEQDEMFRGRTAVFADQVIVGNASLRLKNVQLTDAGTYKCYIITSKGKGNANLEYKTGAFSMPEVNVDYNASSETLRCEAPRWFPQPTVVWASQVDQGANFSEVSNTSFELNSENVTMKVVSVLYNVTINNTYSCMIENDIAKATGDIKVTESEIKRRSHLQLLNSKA
# B1: TPP-6502 (antibody, human IgG1, lambda, V domains shown)
# VH: EVQLLESGGGLVQPGGSLRLSCAASGFTFSTYGMHWVRQAPGKGLEWVSAISGSGGSTYYADSVKGRFTISRDNSKNTLYLQMNSLRAEDTAVYYCTRGYYYYGMDVWGQGTLVTVSS
# VL: QSVLTQPPSASGTPGQRVTISCSGGSSNIGSNPVNWYQQLPGTAPKLLIYGNSKRPSGVPDRFSGSKSGTSASLAISGLRSEDEADYYCQSYDSSLSGWVFGGGTKLTVLG
# B2: TPP-6515 (antibody, human IgG1, lambda, V domains shown)
# VH: B1 VH with T31S, A40V, S57T, T97A, Y100G, Y102H, Y103F, G104L, M105F, V107Y
# VL: B1 VL with G25S, P33T, G51R, S53D, K54Q, P56L, S57L
# B3: TPP-6499 (antibody, human IgG1, lambda, V domains shown)
# VH: EVQLLESGGGLVQPGGSLRLSCAASGFTFRDFYMNWIRQAPGKGLEWVSSISASGKYTYYADSVKGRFTISRDNSKNTLYLQMNSLRAEDTAVYYCAREWGYCTNDVCRNWFDPWGQGTLVTVSS
# VL: B1 VL with S26Y, I29V, S31G, P33N, K54N, W99S
# B4: TPP-6501 (antibody, human IgG1, lambda, V domains shown)
# VH: B1 VH with T31S, T97A, Y100S, Y101N, Y103L
# VL: QSVLTQPPSASGTPGQRVTISCSGSSSNIGRNIVNWYQQLPGTAPKLLIYRSNQRPSGVPDRFSGSKSGTSASLAISGLRSEDEADYYCQTWGTGWVFGGGTKLTVLG
# B5: ADC Example 208-6499 (antibody, human IgG1, lambda, V domains shown)
# VH: B3 VH
# VL: B1 VL with S26Y, I29V, S31G, P33N, K54N, W99S
# modifications: drug-linker from Intermediate F104 on Cys, sites not stated
# B6: ADC Example 208-6501 (antibody, human IgG1, lambda, V domains shown)
# VH: B1 VH with T31S, T97A, Y100S, Y101N, Y103L
# VL: B4 VL
# modifications: drug-linker from Intermediate F104 on Cys, sites not stated
# B7: ADC Example 208-6502 (antibody, human IgG1, lambda, V domains shown)
# VH: B1 VH
# VL: B1 VL
# modifications: drug-linker from Intermediate F104 on Cys, sites not stated
# B8: ADC Example 208-6515 (antibody, human IgG1, lambda, V domains shown)
# VH: B1 VH with T31S, A40V, S57T, T97A, Y100G, Y102H, Y103F, G104L, M105F, V107Y
# VL: B1 VL with G25S, P33T, G51R, S53D, K54Q, P56L, S57L
# modifications: drug-linker from Intermediate F104 on Cys, sites not stated
# B9: ADC Example 257-6499 (antibody, human IgG1, lambda, V domains shown)
# VH: B3 VH
# VL: B1 VL with S26Y, I29V, S31G, P33N, K54N, W99S
# modifications: drug-linker from Intermediate F257 on Cys, sites not stated
# B10: ADC Example 173-6515 (antibody, human IgG1, lambda, V domains shown)
# VH: B1 VH with T31S, A40V, S57T, T97A, Y100G, Y102H, Y103F, G104L, M105F, V107Y
# VL: B1 VL with G25S, P33T, G51R, S53D, K54Q, P56L, S57L
# modifications: drug-linker from Intermediate F173 on Cys, sites not stated
# B11: ADC Example 194-6502 (antibody, human IgG1, lambda, V domains shown)
# VH: B1 VH
# VL: B1 VL
# modifications: drug-linker from Intermediate F194 on Lys, sites not stated
# B12: ADC Example 274-6499 (antibody, human IgG1, lambda, V domains shown)
# VH: B3 VH
# VL: B1 VL with S26Y, I29V, S31G, P33N, K54N, W99S
# modifications: drug-linker from Intermediate F274 on Cys, sites not stated
# B13: ADC Example 281-6501 (antibody, human IgG1, lambda, V domains shown)
# VH: B1 VH with T31S, T97A, Y100S, Y101N, Y103L
# VL: B4 VL
# modifications: drug-linker from Intermediate F281 on Cys, sites not stated
# B14: ADC Example 284-6501 (antibody, human IgG1, lambda, V domains shown)
# VH: B1 VH with T31S, T97A, Y100S, Y101N, Y103L
# VL: B4 VL
# modifications: drug-linker from Intermediate F284 on Cys, sites not stated
# B15: ADC Example 297-6501 (antibody, human IgG1, lambda, V domains shown)
# VH: B1 VH with T31S, T97A, Y100S, Y101N, Y103L
# VL: B4 VL
# modifications: drug-linker from Intermediate F297 on Cys, sites not stated
# Target: T1, human B7H3 on cancer cell lines
# Assay: flow cytometry on A498 cells, dose response from 10 ug/mL (1:5 dilution), FITC secondary antibody
# Experimental: A dose response curve (1:5 dilution) was generated. Following incubation, 200 μL of ice-cold FACS buffer were pipetted in and the cell suspension was centrifuged at 4° C., 400 g for 4 min. The cell pellet was washed with 300 μL of ice-cold FACS buffer prior to resuspending the pellet obtained in 100 μL of FACS buffer and again incubating for 30 min on ice with secondary antibody (monoclonal anti-kappa light chains FITC antibody, Sigma, No. SAB4700605) in a 1:10 dilution. Subsequently, the cells were washed with ice-cold FACS buffer and adjusted to a cell concentration of 0.5×10⁶ cells/mL before carrying out the flow cytometry using a Guava flow cytometer (Millipore). Propidium iodide (final concentration 1 μg/mL) was used for the live staining. With the aid of the background-corrected geometric mean fluorescence values, the IC50 value of the antibody to be investigated was determined.
row,Molecule,EC50 [nM]
1,B1,0.143
2,B2,0.661
3,B3,0.847
4,B4,1.23

# Target: T1, human B7H3 on cancer cell lines
# Assay: cell-based or functional assay
Molecule,MCF-7 CTG (IC50 M) [nM],A498 CTG (IC 50 M) [nM],Caki-2 CTG (IC50 M) [nM]
B5,0.135,–,–
B6,0.161,< 0.03,–
B7,–,0.0667,–
B8,0.338,0.688,–
B9,–,0.247,< 0.03
B10,–,> 307,2.57
B11,1,2.93,–

# Target: T1, human B7H3 on cancer cell lines
# Assay: cell-based or functional assay
# Remark: another data set of the same source
Molecule,NCI-H292 CTG (IC50 M) [nM],U251 CTG (IC50 M) [nM]
208-isotype control (antibody),137,77.6

# Target: T2, TPP-3760, B7H3 long, human (R&D Systems …)
# Assay: ELISA, IgG captured on anti-human IgG Fc, antigen 37 ng/ml, anti-His HRP detection
# Experimental: (§1) Binding of the antibodies to human B7H3 and to human B7H2 and B7H4 was characterized using ELISAs. […] After washing once with PSB, 0.05% Tween, the plate was blocked with 100% Smart Block (Candor) for one hour at 37° C. The antibody to be tested was then attached to the plate (2 μg/ml IgG in PBS, 0.05% Tween, 10% Smart Block; 1 hour, room temperature). […] After washing three times, the plate was incubated with Amplex Red for 30 minutes and then read.
row,Molecule,Quotient signal (B7)/signal (buffer)
1,B1,126
2,B2,116
3,B3,109
4,B4,118

# Target: T3, human B7H2 (RnDSystems, 8206-B7)
# Assay: as above
# Experimental: as §1
row,Molecule,Quotient signal (B7)/signal (buffer)
1,B1,< 1.5
2,B2,< 1.5
3,B3,< 1.5
4,B4,< 1.5

# Target: T4, human B7H4 (RnDSystems, 6576-B7)
# Assay: as above
# Experimental: as §1
row,Molecule,Quotient signal (B7)/signal (buffer)
1,B1,< 1.5
2,B2,< 1.5
3,B3,< 1.5
4,B4,< 1.5

# Target: T1, human B7H3 on cancer cell lines
# Assay: cell-based or functional assay
# Remark: another data set of the same source
row,Molecule,U251 CTG (IC50 M) [nM]
1,B6,0.295
2,B7,0.933
3,B8,0.41
4,B9,0.0736
5,B12,1.2
6,B13,29.9
7,B14,62.9
8,B15,0.704
